Data taken from patent US6939707B2, “Isolated nucleic acid molecules which encode GAGE genes and uses thereof” (Ludwig Institute for Cancer Research, priority 1993, dated 2005).

Experiments:
CTL 76/6 = experiment: TNF release / recognition by CTL 76/6 of COS cells cotransfected with GAGE cDNA and HLA-Cw6 cDNA; type: cell-based, human; settings: COS cells transfected with cDNA together with HLA-Cw6 cDNA (FIG. 2, FIG. 6)
Method: Following preparation of the library described in Example 3, the cDNA was transfected into eukaryotic cells. The transfections, described herein, were carried out in duplicate. Samples of COS-7 cells were seeded, at 15,000 cells/well into tissue culture flat bottom microwells, in Dulbecco's modified Eagles Medium (“DMEM”) supplemented with 10% fetal calf serum. The cells were incubated overnight at 37° C., medium was removed and then replaced by 50 μl/well of DMEM medium containing 10% Nu serum, 400 μg/ml DEAE-dextran, and 100 μM chloroquine, plus 100 ng of the plasmids. […] As a result, cDNA for each of the HLA molecules which could present the antigen (A1, B37, Cw6) was used, separately, to cotransfect the cells. Specifically, one of 28 ng of the gene encoding HLA-A1 cloned into pCD-SRα, 50 ng of cDNA for HLA-B37 in pcDNA 1/Amp, or 75 ng of cDNA for HLA-Cw6 in pcDNAI-Amp, using the same protocols as were used for transfeclion with the library.
Transfection was carried out in duplicate wells, but only 500 pools of the HLA-Cw6 transfectants could be tested in single wells. Following four hours of incubation at 37° C., the medium was removed, and replaced by 50 μl of PBS containing 10% DMSO. This medium was removed after two minutes and replaced by 200 μl of DMEM supplemented with 10% FCS.
(§1) Following this change in medium, COS cells were incubated for 24-48 hours at 37° C. Medium was then discarded, and 1000-3000 cells of CTL clone 76/6 were added, in 100 μl of Iscove's medium containing 10% pooled human serum supplemented with 20-30 U/ml of recombinant IL-2. Supernatant was removed after 24 hours, and TNF content was determined in an assay on WEHI cells, as described by Traversari et al., Immunogenetics 35: 145-152 (1992), the disclosure of which is incorporated by reference.
The bacteria of the selected pool were cloned, and 600 clones were tested. Plasmid DNA was extracted therefrom, transfected into a new sample of COS cells in the same manner as described supra, and the cells were again tested for stimulation of CTL clone 76/6. Ninety-four positive clones were found. One of these, referred to as cDNA clone 2D6, was tested further. In a comparative test COS cells were transfected with cDNA clone 2D6 and the HLA-Cw6 cDNA, HLA-Cw6 cDNA alone, or cDNA 2D6 alone. Control cell lines MZ2-MEL F and MZ2-MEL F^+ were also used. TNF release into CTL supernatant was measured by testing it on WEHI cells, as referred to supra. The number of surviving WEHI cells was measured by optical density after incubation of the cells with MTT.
To assess whether the change at position 2 affected the antigenicity of the peptide, cDNA of the 6 GAGE cDNAs were individually transfected into COS cells together with the cDNA of HLA-Cw6, and the transfectants were tested for recognition by CTL 76/6 as described, supra. Only GAGE-1 and GAGE-2 transfected cells were recognized, showing that the modified peptide encoded by GAGE-3, 4, 5 and 6 was not antigenic in the context of this experiment.

CTL 22/23 = experiment: TNF production by CTL 22/23 on COS-7 cells cotransfected with HLA-A29 and GAGE cDNA; type: cell-based, human; settings: COS-7 cells transfected with HLA-A29 and the cDNA, 24 hours (FIG. 7)
Method: as §1
Once positive HLA-A29 clones were isolated, these were transfected into COS-7 using the DEAE-dextran chloroquine method out supra. In brief, 1.5×10^4 COS-7 cells were treated with 50 ng of plasmid pcDNA-I/Amp containing HLA-A29, and 100 ng of cDNA containing cDNA for one of the GAGE sequences mentioned supra, or one of the prior art MAGE or BAGE sequences in plasmid pcDNAα-I/Amp or pcDSR-α, respectively. The transfectants were then incubated for 24 hours at 37° C.
The transfectants were then tested for their ability to stimulate TNF production by CTLs, using the assay explained at the end of example, 4, supra.

| Molecule | recognition by CTL 76/6 (TNF release) (CTL 76/6) | stimulation of TNF production by CTL clone 22/23 (CTL 22/23) | recognition by CTL 76/6 (TNF release) (CTL 76/6; listed as cDNA clone 2D6) |
| --- | --- | --- | --- |
| GAGE-5: cDNA highly related to GAGE, from MZ2-MEL.43 library (nucleic acid) DNA: AGCTGTGAGGCAGTGCTGTGTGGTTCCTGCCGTCCGGACTCTTTTTCCTCTACTGAGATTCATCTGTGTGAAATATGAGTTGGCGAGGAAGATCGACCTATTATTGGCCTAGACCAAGGCGCTATGTACAGCCTCCTGAAGTGATTGGGCCTATGCGGCCCGAGCAGTTCAGTGATGAAGTGGAACCAGCAACACCTGAAGAAGGGGAACCAGCAACTCAACGTCAGGATCCTGCAGCTGCTCAGGAGGGAGAGGATGAGGGAGCATCTGCAGGTCAAGGGCCGAAGCCTGAAGCTGATAGCCAGGAACAGGGTCACCCACAGACTGGGTGTGAGTGTGAAGATGGTCCTGATGGGCAGGAGATGGACCCGCCAAATCCAGAGGAGGTGAAAACGCCTGAAGAAGGTGAAAAGCAATCACAGTGTTAAAAGAAGGCACGTTGAAATGATGCAGGCTGCTCCTATGTTGGAAATTTGTTCATTAAAATTCTCCCAATAAAGCTTTACAGCCTTCTGCAAAGAAAAAAAAAAAA | not antigenic | high levels of TNF production |  |
| GAGE-4: cDNA highly related to GAGE, from MZ2-MEL.43 library (nucleic acid) DNA: CGCCAGGGAGCTGTGAGGCAGTGCTGTGTGGTTCCTGCCGTCCGGACTCTTTTTCCTCTACTGAGATTCATCTGTGTGAAATATGAGTTGGCGAGGAAGATCGACCTATTATTGGCCTAGACCAAGGCGCTATGTACAGCCTCCTGAAATGATTGGGCCTATGCGGCCCGAGCAGTTCAGTGATGAAGTGGAACCAGCAACACCTGAAGAAGGGGAACCAGCAACTCAACGTCAGGATCCTGCAGCTGCTCAGGAGGGAGAGGATGAGGGAGCATCTGCAGGTCAAGGGCCGAAGCCTGAAGCTGATAGCCAGGAACAGGGTCACCCACAGACTGGGTGTGAGTGTGAAGATGGTCCTGATGGGCAGGAGATGGACCCGCCAAATCCAGAGGAGGTGAAAACGCCTGAAGAAGGTGAAAAGCAATCACAGTGTTAAAAGAAGGCACGTTGAAATGATGCAGGCTGCTCCTATGTTGGAAATTTGTTCATTAAAATTCTCCCAATAAAGCTTTACAGCCTTCTGCAAAAAAAAAAAAAAAA | not antigenic | high levels of TNF production |  |
| GAGE-1: cDNA coding for GAGE tumor rejection antigen precursor, SEQ ID NO: 1 (nucleic acid) DNA: CTGCCGTCCGGACTCTTTTTCCTCTACTGAGATTCATCTGTGTGAAATATGAGTTGGCGAGGAAGATCGACCTATCGGCCTAGACCAAGACGCTACGTAGAGCCTCCTGAAATGATTGGGCCTATGCGGCCCGAGCAGTTCAGTGATGAAGTGGAACCAGCAACACCTGAAGAAGGGGAACCAGCAACTCAACGTCAGGATCCTGCAGCTGCTCAGGAGGGAGAGGATGAGGGAGCATCTGCAGGTCAAGGGCCGAAGCCTGAAGCTGATAGCCAGGAACAGGGTCACCCACAGACTGGGTGTGAGTGTGAAGATGGTCCTGATGGGCAGGAGATGGACCCGCCAAATCCAGAGGAGGTGAAAACGCCTGAAGAAGAGATGAGGTCTCACTATGTTGCCCAGACTGGGATTCTCTGGCTTTTAATGAACAATTGCTTCTTAAATCTTTCCCCACGGAAACCTTGAGTGACTGAAATATCAAATGGCGAGAGACCGTTTAGTTCCTATCATCTGTGGCATGTGAAGGGCAATCACAGTGTTAAAAGAAGACATGCTGAAATGTTGCAGGCTGCTCCTATGTTGGAAAATTCTTCATTGAAGTTCTCCCAATAAAGCTTTACAGCCTTCTGCAAAGAAAAAAAAAAAA | recognized | do not stimulate CTL clone 22/23 | stimulated TNF release |
| GAGE-2: cDNA highly related to GAGE, from MZ2-MEL.43 library (nucleic acid) DNA: ACGCCAGGGAGCTGTGAGGCAGTGCTGTGTGGTTCCTGCCGTCCGGACTCTTTTTCCTCTACTGAGATTCATCTGTGTGAAATATGAGTTGGCGAGGAAGATCGACCTATCGGCCTAGACCAAGACGCTACGTAGAGCCTCCTGAAATGATTGGGCCTATGCGGCCCGAGCAGTTCAGTGATGAAGTGGAACCAGCAACACCTGAAGAAGGGGAACCAGCAACTCAACGTCAGGATCCTGCAGCTGCTCAGGAGGGAGAGGATGAGGGAGCATCTGCAGGTCAAGGGCCGAAGCCTGAAGCTCATAGCCAGGAACAGGGTCACCCACAGACTGGGTGTGAGTGTGAAGATGGTCCTGATGGGCAGGAGATGGACCCGCCAAATCCAGAGGAGGTGAAAACGCCTGAAGAAGGTGAAAAGCAATCACAGTGTTAAAAGAAGACACGTTGAAATGATGCAGGCTGCTCCTATGTTGGAAATTTGTTCATTAAAATTCTCCCAATAAAGCTTTACAGCCTTCTGCAAAGAAAAAAAAAAAA | recognized | do not stimulate CTL clone 22/23 |  |
| GAGE-3: cDNA highly related to GAGE, from MZ2-MEL.43 library (nucleic acid) DNA: CTCATATTTCACACAGATGAGTTGGCGAGGAAGATCGACCTATTATTGGTCTAGGCCAATAATAGGTCGATCTTCCTCGCCAACTCATATTTCACACAGATGAATCTCAGTAGAGGAAAATCGACCTATTATTGGCCTAGACCAAGGCGCTATGTACAGCCTCCTGAAGTGATTGGGCCTATGCGGCCCGAGCAGTTCAGTGATGAAGTGGAACCAGCAACACCTGAAGAAGGGGAACCAGCAACTCAACGTCAGGATCCTGCAGCTGCTCAGGAGGGAGAGGATGAGGGAGCATCTGCAGGTCAAGGGCCGAAGCCTGAAGCTGATAGCCAGGAACAGGGTCACCCACAGACTGGGTGTGAGTGTGAAGATGGTCCTGATGGGCAGGAGATGGACCCGCCAAATCCAGAGGAGGTGAAAACGCCTGAAGAAGGTGAAAAGCAATCACAGTGTTAAAAGAAGGCACGTTGAAATGATGCAGGCTGCTCCTATGTTGGAAATTTGTTCATTAAAATTCTCCCAATAAAGCTTTACAGCCTTCTGCAAAGAAAAAAAAAAAA | not antigenic | high levels of TNF production |  |
| GAGE-6: cDNA highly related to GAGE, from MZ2-MEL.43 library (nucleic acid) DNA: GCCAGGGAGCTGTGAGGCAGTGCTGTGTGGTTCCTGCCGTCCGGACTCTTTTTCCTCTACTGAGATTCATCTGTGTGAAATATGAGTTGGCGAGGAAGATCGACCTATTATTGGCCTAGACCAAGGCGCTATGTACAGCCTCCTGAAGTGATTGGGCCTATGCGGCCCGAGCAGTTCAGTGATGAAGTGGAACCAGCAACACCTGAAGAAGGGGAACCAGCAACTCAACGTCAGGATCCTGCAGCTGCTCAGGAGGGAGAGGATGAGGGAGCATCTGCAGGTCAAGGGCCGAAGCCTGAAGCTGATAGCCAGGAACAGGGTCACCCACAGACTGGGTGTGAGTGTGAAGATGGTCCTGATGGGCAGGAGGTGGACCCGCCAAATCCAGAGGAGGTGAAAACGCCTGAAGAAGGTGAAAAGCAATCACAGTGTTAAAAGAAGACACGTTGAAATGATGCAGGCTGCTCCTATGTTGGAAATTTGTTCATTAAAATTCTCCCAATAAAGCTTTACAGCCTTCTGCAAAAAAAAAAAAAAAA | not antigenic | high levels of TNF production |  |
